What was measured:
Type in all cases: protein assay
[1] = substrate: O=[N+]([O-])c1ccc(O[C@H]2O[C@H](CO)[C@@H](O)[C@H](O)[C@@H]2O)cc1; test: (§1) Ratio of Kcat to Km for Bacteroides thetaiotaomicron GH92 alpha-mannosidase 3990 Q602A mutant assessed as as mannose release after 16 hrs by HPLC relative to wild type enzyme
[2] = substrate: O=[N+]([O-])c1ccc(O[C@H]2O[C@H](CO)[C@@H](O)[C@H](O)[C@@H]2O)c([N+](=O)[O-])c1; test: as §1
[3] = substrate: OC[C@H]1O[C@H](O[C@H]2[C@@H](O)[C@H](O)[C@@H](CO)O[C@@H]2O)[C@@H](O)[C@@H](O)[C@@H]1O; test: as §1
[4] = substrate: O=[N+]([O-])c1ccc(O[C@H]2O[C@H](CO)[C@@H](O)[C@H](O)[C@@H]2O)cc1; test: (§2) Activity of Bacteroides thetaiotaomicron GH92 alpha-mannosidase 3990 Q602A mutant assessed as as mannose release after 16 hrs by HPLC relative to wild type enzyme
[5] = substrate: OC[C@H]1O[C@H](O[C@H]2[C@@H](O)[C@H](O)[C@@H](CO)O[C@@H]2O)[C@@H](O)[C@@H](O)[C@@H]1O; test: as §2
[6] = substrate: O=[N+]([O-])c1ccc(O[C@H]2O[C@H](CO)[C@@H](O)[C@H](O)[C@@H]2O)cc1; test: (§3) Activity of Bacteroides thetaiotaomicron GH92 alpha-mannosidase 2199 E537A mutant assessed as as mannose release after 16 hrs by HPLC relative to wild type enzyme
[7] = substrate: OC[C@H]1O[C@H](O[C@H]2[C@@H](O)[C@H](O)[C@@H](CO)O[C@@H]2O)[C@@H](O)[C@@H](O)[C@@H]1O; test: as §3
[8] = substrate: O=[N+]([O-])c1ccc(O[C@H]2O[C@H](CO)[C@@H](O)[C@H](O)[C@@H]2O)cc1; test: (§4) Ratio of Kcat to Km for Bacteroides thetaiotaomicron GH92 alpha-mannosidase 2199 E537A mutant assessed as as mannose release after 16 hrs by HPLC relative to wild type enzyme
[9] = substrate: OC[C@H]1O[C@H](O[C@H]2[C@@H](O)[C@H](O)[C@@H](CO)O[C@@H]2O)[C@@H](O)[C@@H](O)[C@@H]1O; test: as §4
[10] = substrate: O=[N+]([O-])c1ccc(O[C@H]2O[C@H](CO)[C@@H](O)[C@H](O)[C@@H]2O)cc1; test: (§5) Ratio of Kcat to Km for Bacteroides thetaiotaomicron GH92 alpha-mannosidase 2199 E537Q mutant assessed as as mannose release after 16 hrs by HPLC relative to wild type enzyme
[11] = substrate: OC[C@H]1O[C@H](O[C@H]2[C@@H](O)[C@H](O)[C@@H](CO)O[C@@H]2O)[C@@H](O)[C@@H](O)[C@@H]1O; test: as §5
[12] = substrate: O=[N+]([O-])c1ccc(O[C@H]2O[C@H](CO)[C@@H](O)[C@H](O)[C@@H]2O)cc1; test: (§6) Activity of Bacteroides thetaiotaomicron GH92 alpha-mannosidase 2199 E537Q mutant assessed as as mannose release after 16 hrs by HPLC relative to wild type enzyme
[13] = substrate: OC[C@H]1O[C@H](O[C@H]2[C@@H](O)[C@H](O)[C@@H](CO)O[C@@H]2O)[C@@H](O)[C@@H](O)[C@@H]1O; test: as §6

B1: Alpha-1,2-mannosidase (BT_3990) (Bacteroides thetaiotaomicron), Q8A0N1 Q602A (protein)
chain: MKRLLLIACILNCTLLSQAKDWTQYVNPLMGSQSTFELSTGNTYPAIARPWGMNFWTPQTGKMGDGWQYTYTANKIRGFKQTHQPSPWINDYGQFSIMPIVGQPVFDEEKRASWFAHKGEVATPYYYKVYLAEHDIVTEMTPTERAVLFRFTFPENDHSYVVVDAFDKGSYIKIIPEENKIIGYTTRNSGGVPENFKNYFIIEFDKPFTYKATVENGNLQENVAEQTTDHAGAIIGFKTRKGEQVNARIASSFISFEQAAANMNELGKDNIEQLAQKGKDAWNQVLGKIEVEGGNLDQYRTFYSCLYRSLLFPRKFYELDANGQPIHYSPYNGQVLPGYMFTDTGFWDTFRCLFPLLNLMYPSVNKEMQEGLINTYLESGFFPEWASPGHRGCMVGNNSASILVDAYMKGVKVDDIKTLYEGLIHGTENVHPEVSSTGRLGYEYYNKLGYVPYDVKINENAARTLEYAYDDWCIYRLAKELKRPKKEISLFAKRAMNYKNLFDKESKLMRGRNEDGTFQSPFSPLKWGDAFTEGNSWHYTWSVFHDPQGLIDLMGGKEMFVTMMDSVFAVPPIFDDSYYGQVIHEIREMTVMNMGNYAHGNAPIQHMIYLYDYAGQPWKAQYWLRQVMDRMYTPGPDGYCGDEDNGQTSAWYVFSALGFYPVCPGTDEYVMGTPLFKKATLHFENGNSLVIDAPNNSTENFYIDSMSFNGADHTKNYLRHEDLFKGGTIKVDMSNRPNLNRGTKEEDMPYSFSKE
[1]
  kcat/Km: 0.021 mM⁻¹ min⁻¹
[2]
  kcat/Km: 1.2 mM⁻¹ min⁻¹
[3]
  kcat/Km: 23 mM⁻¹ min⁻¹
[4]
  Km: 6.6 mM
  kcat: 0.14 min⁻¹
[5]
  Km: 16 mM
  kcat: 360 min⁻¹

B2: Alpha-1,2-mannosidase (BT_2199) (Bacteroides thetaiotaomicron), Q8A5N9 E537A (protein)
chain: MVTRLFFLSICFPFLLTSCQQSKKTVEFVDYVNPLMGTESTFAFSHGNTYPAVAVPWGMNFWSPQTGENGSGWMYTYTDSLMRGFRQTHQPSPWINDYGTFSIMPLAGELKMSHKERLVPFSHQQEKATPYNYSVTFNNGLQTSLSATSRGAVFEVSFPEKEDQYVVVDAYNGGSSITIEPEKRLVKGATRYNNGGVPDNFANYFMMEFSHPVIEYGTYNGDTLLHHQTDVAADYTCAYLKFDVPAGEKLTIRTASSFISPEQAAINFNREVADADVQLISGKAREQWNNYLGRVEAEGGTDEQLRTFYSCLYRTLLFPREFYEFDSQGNPVYYSPYDGNVHDGYMYTDNGFWDTFRAVHPLFTLLYPEVSERVTQSIINAYNESGFMPEWASPGHRGCMIGNNSVSLLVDAWMKGIQTVDAEKALEAMIHQTQARHAEIASVGRDGFEYYDKLGYVPYPEVPEATAKTLEYAYADWCIARFAESLGKQDIADQYYQKAPNYRNLYYPEHGFMWTKDAKGNWRDRFDATEWGGPFTAGSSWHWTWSVFHDPEGLSELMGGHEPMIARLDSMFVAPNTYNYGTYGFVIHEIAEMVALNMGQYAHGNQPVQHAIYLYDYIGQPWKTQYHLRNVMDKLYNSGSKGYCGDEDNGQTSAWYVFSAMGFYPVCPGMPEYAIGSPLFKKVTLHLPEGKNFVVSAADNAADRPYIRKALLNGQEFTRNYLTHDELKQGGELNLSMDSVPNQQRGTQPADFPYSYSK
[6]
  Km: Not Active
  kcat: Not Active
[7]
  Km: 874 µM
  kcat: 0.027 min⁻¹
[8]
  kcat/Km: 0.023 mM⁻¹ min⁻¹
[9]
  kcat/Km: 0.031 mM⁻¹ min⁻¹

B3: Alpha-1,2-mannosidase (BT_2199) (Bacteroides thetaiotaomicron), Q8A5N9 E537Q (protein)
chain: MVTRLFFLSICFPFLLTSCQQSKKTVEFVDYVNPLMGTESTFAFSHGNTYPAVAVPWGMNFWSPQTGENGSGWMYTYTDSLMRGFRQTHQPSPWINDYGTFSIMPLAGELKMSHKERLVPFSHQQEKATPYNYSVTFNNGLQTSLSATSRGAVFEVSFPEKEDQYVVVDAYNGGSSITIEPEKRLVKGATRYNNGGVPDNFANYFMMEFSHPVIEYGTYNGDTLLHHQTDVAADYTCAYLKFDVPAGEKLTIRTASSFISPEQAAINFNREVADADVQLISGKAREQWNNYLGRVEAEGGTDEQLRTFYSCLYRTLLFPREFYEFDSQGNPVYYSPYDGNVHDGYMYTDNGFWDTFRAVHPLFTLLYPEVSERVTQSIINAYNESGFMPEWASPGHRGCMIGNNSVSLLVDAWMKGIQTVDAEKALEAMIHQTQARHAEIASVGRDGFEYYDKLGYVPYPEVPEATAKTLEYAYADWCIARFAESLGKQDIADQYYQKAPNYRNLYYPEHGFMWTKDAKGNWRDRFDATEWGGPFTQGSSWHWTWSVFHDPEGLSELMGGHEPMIARLDSMFVAPNTYNYGTYGFVIHEIAEMVALNMGQYAHGNQPVQHAIYLYDYIGQPWKTQYHLRNVMDKLYNSGSKGYCGDEDNGQTSAWYVFSAMGFYPVCPGMPEYAIGSPLFKKVTLHLPEGKNFVVSAADNAADRPYIRKALLNGQEFTRNYLTHDELKQGGELNLSMDSVPNQQRGTQPADFPYSYSK
[10]
  kcat/Km: 1.17 mM⁻¹ min⁻¹
[11]
  kcat/Km: 0.046 mM⁻¹ min⁻¹
[12]
  Km: 3.1 mM
  kcat: 3.6 min⁻¹
[13]
  Km: 571 µM
  kcat: 0.026 min⁻¹
